From the supplement of paper PMC10724198
± gives the standard deviation of the averaged measurements.

The sequences below were run on Saccharomyces cerevisiae (assay: protein stability index of tFT-peptide fusion (C-terminal peptide) (PSI (0-1 scale)); higher = more stable (slower turnover)). Settings: genetic background: wild type; temperature: 30 C.
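Also: PSI is a weighted mean of sequencing reads over stability bins, variants kept only with over 10 reads, mCherry proximal and sfGFP distal, peptide attached via GGGS linker.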

| Sequence | protein stability index |
| --- | --- |
| LGSSGCVLVGWG | 0.683 ± 0.0084 |
| LGSSPPPTLPPP | 0.701 ± 0.031 |
| LGVGVGGRGVRG | 0.745 ± 0.0098 |
| LGVLGGGRRFGV | 0.715 ± 0.019 |
| LGVRSGGSWRAG | 0.792 ± 0.064 |
| LGVVCLGADLLR | 0.693 ± 0.026 |
| LHAPFPLPPPPP | 0.647 ± 0.026 |
| LHCLGFWRVMYG | 0.6538 ± 0.0011 |
| LHCPRICYSPHL | 0.715 ± 0.059 |
| LHEHHSFCFRLL | 0.658 ± 0.1 |
| LHFYSLMEFQCD | 0.695 ± 0.038 |
| LHHPPSPLRNPP | 0.687 ± 0.059 |
| LHHYPLVISGVS | 0.47 ± 0.12 |
| LHPPLPPLPFSA | 0.679 ± 0.017 |
| LHVPPSPFPTPP | 0.679 ± 0.049 |
| LIAGLNLASYGL | 0.643 ± 0.1 |
| LIALSLPSSFVF | 0.594 ± 0.025 |
| LICVSTLAPSGQ | 0.676 ± 0.0078 |
| LIFACIYFSGVV | 0.644 ± 0.047 |
| LIGASFGLYPVS | 0.693 ± 0.07 |
| LIHCVSTFRCGE | 0.622 ± 0.026 |
| LIIMPTFDISAP | 0.7273 ± 0.0059 |
| LILEKHEMIGRR | 0.681 ± 0.026 |
| LIPLSLPSCPLS | 0.69 ± 0.085 |
| LITCHSHKPQQI | 0.704 ± 0.098 |
| LKRKRKYKKQGV | 0.786 ± 0.01 |

| Sequence | protein stability index |
| --- | --- |
| LKRRREGEPGKQ | 0.625 ± 0.053 |
| LKRSYKKQRDNV | 0.698 ± 0.14 |
| LLAFSPFLPLPP | 0.667 ± 0.046 |
| LLANLRSSIDIQ | 0.709 ± 0.18 |
| LLCGVLGLAWVW | 0.553 ± 0.029 |
| LLCRGLGSVGRR | 0.63 ± 0.18 |
| LLDLVVTAMCVL | 0.587 ± 0.032 |
| LLESFCVSWCSW | 0.617 ± 0.012 |
| LLFDIYSPTCPS | 0.628 ± 0.02 |
| LLFLPRPPVCSR | 0.649 ± 0.11 |
| LLGRRSHTPDEP | 0.723 ± 0.013 |
| LLHPFPPLCRHP | 0.716 ± 0.018 |
| LLHPSPTPPCPP | 0.696 ± 0.06 |
| LLLLFLCSPSSL | 0.496 ± 0.041 |
| LLLLRPPLGASF | 0.711 ± 0.016 |
| LLLPPPLSASSS | 0.633 ± 0.028 |
| LLLRGSGRSLAL | 0.709 ± 0.0082 |
| LLLRLAASSSLS | 0.703 ± 0.027 |
| LLLSQSSFCLTC | 0.637 ± 0.046 |
| LLNAGAMKGRLG | 0.6782 ± 0.0038 |
| LLNNNLNQRIYQ | 0.729 ± 0.019 |
| LLPALPPRCISF | 0.7343 ± 0.005 |
| LLPLLPPAPPSP | 0.687 ± 0.024 |
| LLPPAPLPPSLG | 0.722 ± 0.016 |
| LLPPFPPPSLFS | 0.667 ± 0.01 |
| LLPPPPPPPFSD | 0.653 ± 0.079 |

| Sequence | protein stability index |
| --- | --- |
| LLPPPPPPPSTP | 0.772 ± 0.0067 |
| LLPPSPFTPPPF | 0.742 ± 0.076 |
| LLPVFSYVPTFH | 0.648 ± 0.047 |
| LLQFRATFPTTV | 0.721 ± 0.036 |
| LLRFRSFPSAFF | 0.723 ± 0.084 |
| LLRFSFLHFLFY | 0.6116 ± 0.003 |
| LLRSSASISLKK | 0.738 ± 0.059 |
| LLRVMRAVFSGL | 0.623 ± 0.015 |
| LLSIGTSTLFLL | 0.636 ± 0.017 |
| LLSLVSDFLFGL | 0.698 ± 0.042 |
| LLSPHPSCRPTP | 0.584 ± 0.037 |
| LLSPSPPLLPPL | 0.763 ± 0.036 |
| LLYAFSSFLRAP | 0.647 ± 0.046 |
| LLYSTRRCIFEF | 0.645 ± 0.034 |
| LNIVVTQNKNKK | 0.73 ± 0.035 |
| LNPPYLAPPPPF | 0.739 ± 0.045 |
| LPAPAGPEPPRT | 0.6747 ± 0.00069 |
| LPAPPPLPPPHP | 0.712 ± 0.065 |
| LPAPPPPPRPLA | 0.683 ± 0.021 |
| LPASAPFPLSPP | 0.7 ± 0.035 |
| LPDAPCLCSGLL | 0.714 ± 0.013 |
| LPFTLLPPVLSL | 0.596 ± 0.0062 |
| LPGFPPSLLPRL | 0.777 ± 0.059 |
| LPGGVGCVGSPV | 0.721 ± 0.037 |
| LPGLSRATTVYP | 0.679 ± 0.065 |
| LPGPICSPPTGS | 0.693 ± 0.011 |

| Sequence | protein stability index |
| --- | --- |
| LPGSLISPSSPP | 0.721 ± 0.021 |
| LPHLDPPPLPPP | 0.6386 ± 0.0052 |
| LPHSNWAGRVIE | 0.703 ± 0.025 |
| LPHTVITVPDPQ | 0.628 ± 0.065 |
| LPLHRFHPPPPY | 0.715 ± 0.041 |
| LPLPHALGSWSY | 0.7278 ± 0.0061 |
| LPLPPPPAPPPL | 0.7015 ± 0.0012 |
| LPLPVPSLPSAP | 0.728 ± 0.019 |
| LPLSFPTLPPPP | 0.66 ± 0.055 |
| LPLSPRCFSLLG | 0.6774 ± 0.0023 |
| LPLSTLGPLARL | 0.725 ± 0.18 |
| LPLVLSPSPPHP | 0.711 ± 0.061 |
| LPLVSLLCLLPR | 0.668 ± 0.038 |
| LPLYPFGLLLPL | 0.686 ± 0.043 |
| LPPAAPPPPIPA | 0.599 ± 0.0079 |
| LPPASSPPLLTP | 0.696 ± 0.083 |
| LPPAVIVCVLPS | 0.586 ± 0.0097 |
| LPPGSTPDSPTL | 0.706 ± 0.028 |
| LPPHSPALRLPR | 0.708 ± 0.0097 |
| LPPIAFPPSFSP | 0.69983 ± 0.00059 |
| LPPLGAPQPPPP | 0.731 ± 0.021 |
| LPPLPLPPATTP | 0.715 ± 0.04 |
| LPPLPLRSLSSP | 0.746 ± 0.025 |
